In patent publication US20260209386A1 (MYTHIC THERAPEUTICS, published 2026):
Where a chain is given by its changes, count along the chain named.

T1: Human PTK7 Protein, His Tag, Acro Biosystems (human, UniProt Q13308 31-704)
T1 construct: Bought recombinant protein; also called CCK4; not shown: His tag
T1 sequence: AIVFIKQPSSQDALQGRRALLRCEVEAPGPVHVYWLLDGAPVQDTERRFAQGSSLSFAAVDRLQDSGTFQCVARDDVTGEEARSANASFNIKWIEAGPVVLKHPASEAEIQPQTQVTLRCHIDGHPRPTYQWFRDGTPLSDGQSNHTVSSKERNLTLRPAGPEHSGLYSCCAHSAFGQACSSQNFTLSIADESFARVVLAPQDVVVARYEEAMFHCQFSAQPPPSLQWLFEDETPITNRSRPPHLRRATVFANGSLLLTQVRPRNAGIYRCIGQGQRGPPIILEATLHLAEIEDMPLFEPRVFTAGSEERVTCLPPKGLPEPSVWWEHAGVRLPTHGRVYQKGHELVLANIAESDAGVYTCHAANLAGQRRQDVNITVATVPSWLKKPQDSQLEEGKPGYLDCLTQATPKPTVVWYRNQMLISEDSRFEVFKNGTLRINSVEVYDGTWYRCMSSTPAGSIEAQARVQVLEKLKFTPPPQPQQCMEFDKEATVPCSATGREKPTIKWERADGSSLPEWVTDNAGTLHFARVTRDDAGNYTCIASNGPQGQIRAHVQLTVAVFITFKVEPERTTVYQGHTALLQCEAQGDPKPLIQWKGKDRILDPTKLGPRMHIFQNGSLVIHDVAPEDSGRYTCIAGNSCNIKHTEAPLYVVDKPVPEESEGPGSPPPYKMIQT

T2: Human PTK7 Protein, His Tag, Acro Biosystems (human, UniProt Q13308 31-704)
T2 construct: Bought protein; also called CCK4; not shown: His tag
T2 sequence: T1 sequence

T3: Human PTK7 Protein, His Tag (Acro Biosystems) (human, UniProt Q13308 31-704)
T3 construct: Bought His-tagged recombinant human PTK7; also called CCK4; Tyrosine-protein kinase-like 7
T3 sequence: T1 sequence

B1: MYT10897 (antibody, V domains shown)
VH: EVQLVESGGGLVQPGGSLRLSCTASGFSLSNYVMNWVRQAPGKGLEWVGIIHSSGSTYYASWAKGRFTISRDTSKNTVYLQMNSLRAEDTAVYFCARGLYLWGQGTLVTVSS
VL: EIVMTQSPSTLSASVGDRVIITCQSSQSVYNNNLLAWYQQKPGKAPKLLIYYTSNLASGVPSRFSGSGSGAEFTLTISSLQPDDFATYYCQGGYNGNIYAFGQGTKLTVL
notes: MYT9345 variant, substitution at VH pos 52 (H2 03), no Ala mark
B2: MYT10935 (antibody, V domains shown)
VH: B1 VH with H52D
VL: B1 VL with N55H
notes: MYT9345 variant, His at VL pos 55 (L2 04)
B3: MYT10925 (antibody, V domains shown)
VH: B1 VH with H52D
VL: B1 VL with Y30H
notes: MYT9345 variant, His at VL pos 30 (L1 07)
B4: MYT10927 (antibody, V domains shown)
VH: B1 VH with H52D
VL: B1 VL with N32H
notes: MYT9345 variant, His at VL pos 32 (L1 09)
B5: MYT10926 (antibody, V domains shown)
VH: B1 VH with H52D
VL: B1 VL with N31H
notes: MYT9345 variant, His at VL pos 31 (L1 08)
B6: MYT10928 (antibody, V domains shown)
VH: B1 VH with H52D
VL: B1 VL with N33H
notes: MYT9345 variant, His at VL pos 33 (L1 10)
B7: MYT10889 (antibody, V domains shown)
VH: B1 VH with S30H, H52D
VL: B1 VL
notes: MYT9345 variant, His at VH pos 30 (H1 05)
B8: MYT10936 (antibody, V domains shown)
VH: B1 VH with H52D
VL: B1 VL with L56H
notes: MYT9345 variant, His at VL pos 56 (L2 05)
B9: MYT10895 (antibody, V domains shown)
VH: B1 VH with I50H, H52D
VL: B1 VL
notes: MYT9345 variant, His at VH pos 50 (H2 01)
B10: MYT10920 (antibody, V domains shown)
VH: B1 VH with H52D
VL: B1 VL with S25H
notes: MYT9345 variant, His at VL pos 25 (L1 02)
B11: MYT10930 (antibody, V domains shown)
VH: B1 VH with H52D
VL: B1 VL with L35H
notes: MYT9345 variant, His at VL pos 35 (L1 12)
B12: MYT10905 (antibody, V domains shown)
VH: B1 VH with H52D, A60H
VL: B1 VL
notes: MYT9345 variant, His at VH pos 60 (H2 11)
B13: MYT10918 (antibody, V domains shown)
VH: B1 VH with H52A
VL: B1 VL
notes: MYT9345 variant, Ala at VH pos 52 (H2 03)
B14: MYT10916 (antibody, V domains shown)
VH: B1 VH with H52D, L101H
VL: B1 VL
notes: MYT9345 variant, His at VH pos 101 (H3 06)
B15: MYT10942 (antibody, V domains shown)
VH: B1 VH with H52D
VL: B1 VL with Y94H
notes: MYT9345 variant, His at VL pos 94 (L3 04)
B16: MYT10891 (antibody, V domains shown)
VH: B1 VH with Y32H, H52D
VL: B1 VL
notes: MYT9345 variant, His at VH pos 32 (H1 07)
B17: MYT10903 (antibody, V domains shown)
VH: B1 VH with H52D, Y58H
VL: B1 VL
notes: MYT9345 variant, His at VH pos 58 (H2 09)
B18: MYT10937 (antibody, V domains shown)
VH: B1 VH with H52D
VL: B1 VL with A57H
notes: MYT9345 variant, His at VL pos 57 (L2 06)
B19: MYT10946 (antibody, V domains shown)
VH: B1 VH with H52D
VL: B1 VL with I98H
notes: MYT9345 variant, His at VL pos 98 (L3 08)
B20: MYT10950 (antibody, V domains shown)
VH: B1 VH with H52D
VL: B1 VL with N95A
notes: MYT9345 variant, Ala at VL pos 95 (L3 05)
B21: MYT10896 (antibody, V domains shown)
VH: B1 VH with I51H, H52D
VL: B1 VL
notes: MYT9345 variant, His at VH pos 51 (H2 02)
B22: MYT10943 (antibody, V domains shown)
VH: B1 VH with H52D
VL: B1 VL with N95H
notes: MYT9345 variant, substitution at VL pos 95 (L3 05), no Ala mark
B23: MYT10939 (antibody, V domains shown)
VH: B1 VH with H52D
VL: B1 VL with Q91H
notes: MYT9345 variant, His at VL pos 91 (L3 01)
B24: MYT10911 (antibody, V domains shown)
VH: B1 VH with H52D, A96H
VL: B1 VL
notes: MYT9345 variant, His at VH pos 96 (H3 01)
B25: MYT10949 (antibody, V domains shown)
VH: B1 VH with H52D
VL: B1 VL with T108E, V109I, L110K
notes: MYT9345 LC variant; substitution position printed as n/a
B26: MYT10944 (antibody, V domains shown)
VH: B1 VH with H52D
VL: B1 VL with G96H
notes: MYT9345 variant, His at VL pos 96 (L3 06)
B27: MYT10898 (antibody, V domains shown)
VH: B1 VH with H52D, S53H
VL: B1 VL
notes: MYT9345 variant, His at VH pos 53 (H2 04)
B28: MYT10888 (antibody, V domains shown)
VH: B1 VH with L29H, H52D
VL: B1 VL
notes: MYT9345 variant, His at VH pos 29 (H1 04)
B29: MYT11182 (antibody, V domains shown)
VH: EVQLVESGGGLVQPGGSLRLSCTASGIHLSSYVMGWVRQAPGKGLEWVGYIYGGGGTYYATWARGRFTISRDTSKNTVYLQMNSLRAEDTAVYFCARAAADFYFNLWGQGTLVTVSS
VL: EIVMTQSPSTLSASVGDRVIITCQASQSISSYLAWYQQKPGKAPKLLIYDISDLASGVPSRFSGSGSGAEFTLTISSLQPDDFATYYCQSYYWISNSGAAFGQGTKLTVL
notes: HC variant of MYT9460, sub at HCV pos 28 (H1 03)
B30: MYT11184 (antibody, V domains shown)
VH: B29 VH with H28D, S30H
VL: B29 VL
notes: HC variant of MYT9460, sub at HCV pos 30 (H1 05)
B31: MYT11180 (antibody, V domains shown)
VH: B29 VH with G26H, H28D
VL: B29 VL
notes: HC variant of MYT9460, sub at HCV pos 26 (H1 01)
B32: MYT11192 (antibody, V domains shown)
VH: B29 VH with H28D, Y52H
VL: B29 VL
notes: HC variant of MYT9460, sub at HCV pos 52 (H2 03)
B33: MYT11021 (antibody, V domains shown)
VH: EVQLVESGGGLVQPGGSLRLSCTASGFSLSSYAMGWVRQAPGKGLEWVGFINAGGNTYYANWAKGRFTISRDTSKNTVYLQMNSLRAEDTAVYFCARRYSRASGWYDLWGQGTLVTVSS
VL: EIVMTQSPSTLSASVGDRVIITCQASQSISSYLAWYQQKPGKAPKLLIYAASTLASGVPSRFSGSGSGAEFTLTISSLQPDDFATYYCQSYSYSSGIDYHDVFGQGTKLTVL
notes: MYT9359 LC variant; captured on anti-human Fc sensor
B34: MYT11026 (antibody, V domains shown)
VH: B33 VH
VL: B33 VL with H100G, D101A
notes: MYT9359 LC alanine variant; captured on anti-human Fc sensor
B35: MYT11023 (antibody, V domains shown)
VH: B33 VH
VL: B33 VL with H100G, V102H
notes: as for B33
B36: MYT11025 (antibody, V domains shown)
VH: B33 VH
VL: B33 VL with D98A, H100G
notes: as for B34

The binders below were run against T1, Human PTK7 Protein, His Tag, Acro … (assay: BLI (Octet), antibody on anti-human Fc sensor, 50 nM PTK7 at pH 7.4, dissociation at pH 7.4 or 5.4; 1 = pH dependent binding relative to parent).

Row | Binder | binding result
1 | B1 | binds
2 | B2 | binds
3 | B3 | binds
4 | B4 | binds
5 | B5 | binds
6 | B6 | binds
7 | B7 | binds
8 | B8 | binds
9 | B9 | binds
10 | B10 | binds
11 | B11 | binds
12 | B12 | binds
13 | B13 | binds
14 | B14 | binds
15 | B15 | binds
16 | B16 | binds
17 | B17 | binds
18 | B18 | binds
19 | B19 | binds
20 | B20 | binds
21 | B21 | binds
22 | B22 | binds
23 | B23 | binds
24 | B24 | binds
25 | B25 | binds
26 | B26 | binds
27 | B27 | binds
28 | B28 | binds

These binders were tested against T2, Human PTK7 Protein, His Tag, Acro … (assay: BLI (Octet), antibody on anti-human Fc sensor, 50 nM PTK7, dissociation at pH 7.4 or 5.4; 1 = pH dependent binding relative to parent).

Row | Binder | binding result
29 | B29 | binds
30 | B30 | binds
31 | B31 | binds
32 | B32 | binds

What follows are binders tested against T3, Human PTK7 Protein, His Tag (Acro …) (assay: BLI (Octet), antibody on anti-human Fc sensor, 50 nM PTK7; 1 = pH dependent binding).

Row | Binder | binding result
33 | B33 | binds
34 | B34 | binds
35 | B35 | binds
36 | B36 | binds
